Test results published in patent publication US20140134183A1 (CELL MEDICA SWITZERLAND, published 2014).
Numbering of substitutions follows the chain as printed.

B1: DLX2684 (scFv)
scFv: EIVMTQSPSTLSASVGDRVTITCQASQSISSWLSWYQQKPGKAPKLLIYKASTLASGVPSRFSGSGSGTEFTLTISSLQPDDFATYYCQNAGGGVSIAFGQGTKLTVLGGGGGSGGGGSGGGGSGGGGSEVQLVESGGGNVQPGGSLRLSCTASGFSLSDAAMAWVRQAPGKGLEWVGIIYDSASTFYASWAKGRFTISRDNSKNTLYLQMNSLRAEDTATYYCARERNIFSGDMALWGQGTTVTVSS
notes: tested as cleared E. coli lysate; also called DLX2543_2530
B2: DLX2682 (scFv)
scFv: EIVMTQSPSTLSASVGDRVIITCRASQSIGNWLSWYQQKPGKAPKLLIYRASNLASGVPSRFSGSGSGAEFTLTISSLQPEDFATYYCQNTGGGINIAFGQGTKLTVLGGGGGSGGGGSGGGGSGGGGSEVQLVESGGGLVQPGGSLRLSCTVSGFSLSSYAMSWVRQAPGKGLEWIGIIYDSASTYYASWAKGRFTISKDTSKNTLYLQMNSLRAEDTAVYFCARERQIFSGDMDGWGQGTTVTVSS
notes: tested as cleared E. coli lysate; also called DLX2529_2548
B3: DLX2683 (scFv)
scFv: B2 scFv with I177V, L207V, F223Y, Q229A, M235F, G237Y, T243L
notes: tested as cleared E. coli lysate; also called DLX2529_2585
B4: DLX2687 (scFv)
scFv: EIVMTQSPSTLSASVGDRVTITCQASQSISSWLSWYQQKPGKAPKLLIYKASTLASGVPSRFSGSGSGTEFTLTISSLQPDDFATYYCQNAGGGVSIAFGQGTKLTVLGGGGGSGGGGSGGGGSGGGGSEVQLVESGGGLVQPGGSLRLSCTVSGFSLSSYAMSWVRQAPGKGLEWVGIIYDSASTYYASWAKGRFTISKDTSKNTVYLQMNSLRAEDTAVYYCARERAIFSGDFDYWGQGTLVTVSS
notes: tested as cleared E. coli lysate; also called DLX2543_2585
B5: DLX2678 (scFv)
scFv: EIVMTQSPSTLSASVGDRVTITCQASQSIGNWLAWYQQKPGKAPKLLIYQASNLASGVPSRFSGSGSGTDFTLTISSLQPDDFATYYCQNAGGATTIAFGQGTKLTVLGGGGGSGGGGSGGGGSGGGGSEVQLVESGGGLVQPGGSLRLSCTVSGFSLSSYAMSWVRQAPGKGLEWIGIIYDSASTYYASWAKGRFTISKDTSKNTLYLQMNSLRAEDTAVYFCARERQIFSGDMDGWGQGTTVTVSS
notes: tested as cleared E. coli lysate; also called DLX2528_2548
B6: DLX2689 (scFv)
scFv: ADIVMTQSPSTLSASVGDRVTITCQASQSISSYLSWYQQKPGKAPKLLIYKASTLASGVPSRFSGSGSGTDFTLTISSLQPEDFATYYCQNAGGGINIAFGQGTKVEIKRGGGGSGGGGSGGGGSGGGGSEVQLVESGGGNVQPGGSLRLSCTASGFSLSNSAMAWVRQAPGKGLEWVGIIYDSASTYYASWAKGRFTISRDNSKNTVYLQMNSLRAEDTATYYCARERAIFSGDFALWGQGTLVTVSS
notes: tested as cleared E. coli lysate; also called DLX2544_2531
B7: DLX2680 (scFv)
scFv: EIVMTQSPSTLSASVGDRVIITCRASQSIGNWLSWYQQKPGKAPKLLIYRASNLASGVPSRFSGSGSGAEFTLTISSLQPEDFATYYCQNTGGGINIAFGQGTKLTVLGGGGGSGGGGSGGGGSGGGGSEVQLVESGGGNVQPGGSLRLSCTASGFSLSDAAMAWVRQAPGKGLEWVGIIYDSASTFYASWAKGRFTISRDNSKNTLYLQMNSLRAEDTATYYCARERNIFSGDMALWGQGTTVTVSS
notes: tested as cleared E. coli lysate; also called DLX2529_2530
B8: DLX2677 (scFv)
scFv: EIVMTQSPSTLSASVGDRVTITCQASQSIGNWLAWYQQKPGKAPKLLIYQASNLASGVPSRFSGSGSGTDFTLTISSLQPDDFATYYCQNAGGATTIAFGQGTKLTVLGGGGGSGGGGSGGGGSGGGGSEVQLVESGGGNVQPGGSLRLSCTASGFSLSNSAMAWVRQAPGKGLEWVGIIYDSASTYYASWAKGRFTISRDNSKNTVYLQMNSLRAEDTATYYCARERAIFSGDFALWGQGTLVTVSS
notes: tested as cleared E. coli lysate; also called DLX2528_2531
B9: DLX2679 (scFv)
scFv: B5 scFv with I177V, L207V, F223Y, Q229A, M235F, G237Y, T243L
notes: tested as cleared E. coli lysate; also called DLX2528_2585
B10: DLX2676 (scFv)
scFv: B8 scFv with N160D, S161A, Y187F, V207L, A229N, F235M, L243T
notes: tested as cleared E. coli lysate; also called DLX2528_2530
B11: DLX2685 (scFv)
scFv: B1 scFv with D160N, A161S, F187Y, L207V, N229A, M235F, T243L
notes: tested as cleared E. coli lysate; also called DLX2543_2531
B12: DLX2692 (scFv)
scFv: ADIVMTQSPSTLSASVGDRVTITCQASQSISSYLSWYQQKPGKAPKLLIYRASTLASGVPSRFSGSGSGAEFTLTISSLQPDDFATYYCQNTGGGINIAFGQGTKLEIKRGGGGSGGGGSGGGGSGGGGSEVQLVESGGGNVQPGGSLRLSCTASGFSLSDAAMAWVRQAPGKGLEWVGIIYDSASTFYASWAKGRFTISRDNSKNTLYLQMNSLRAEDTATYYCARERNIFSGDMALWGQGTTVTVSS
notes: tested as cleared E. coli lysate; also called DLX2547_2530
B13: DLX2690 (scFv)
scFv: ADIVMTQSPSTLSASVGDRVTITCQASQSISSYLSWYQQKPGKAPKLLIYKASTLASGVPSRFSGSGSGTDFTLTISSLQPEDFATYYCQNAGGGINIAFGQGTKVEIKRGGGGSGGGGSGGGGSGGGGSEVQLVESGGGLVQPGGSLRLSCTVSGFSLSSYAMSWVRQAPGKGLEWIGIIYDSASTYYASWAKGRFTISKDTSKNTLYLQMNSLRAEDTAVYFCARERQIFSGDMDGWGQGTTVTVSS
notes: tested as cleared E. coli lysate; also called DLX2544_2548
B14: DLX2695 (scFv)
scFv: ADIVMTQSPSTLSASVGDRVTITCQASQSISSYLSWYQQKPGKAPKLLIYRASTLASGVPSRFSGSGSGAEFTLTISSLQPDDFATYYCQNTGGGINIAFGQGTKLEIKRGGGGSGGGGSGGGGSGGGGSEVQLVESGGGLVQPGGSLRLSCTVSGFSLSSYAMSWVRQAPGKGLEWVGIIYDSASTYYASWAKGRFTISKDTSKNTVYLQMNSLRAEDTAVYYCARERAIFSGDFDYWGQGTLVTVSS
notes: tested as cleared E. coli lysate; also called DLX2547_2585
B15: DLX2691 (scFv)
scFv: B14 scFv with R51K, A70T, E71D, D82E, T92A, L106V
notes: tested as cleared E. coli lysate; also called DLX2544_2585
B16: DLX2694 (scFv)
scFv: B13 scFv with K51R, T70A, D71E, E82D, A92T, V106L
notes: tested as cleared E. coli lysate; also called DLX2547_2548
B17: DLX2464 (scFv)
scFv: EIVMTQSPSTLSASVGDRVIITCQASQSIDNWLSWYQQKPGKAPKLLIYRASTLASGVPSRFSGSGSGAEFTLTISSLQPDDFATYYCQNTGGGVSIAFGQGTKLTVLGGGGGSGGGGSGGGGSGGGGSEVQLVESGGGLVQPGGSLRLSCTASGFSLSSAAMAWVRQAPGKGLEWVGIIYDSASTYYASWAKGRFTISRDTSKNTVYLQMNSLRAEDTAVYYCARERQIFSGDMAGWGQGTLVTVSS
B18: DLX2476 (scFv)
scFv: B17 scFv with D30S, N31S, Q229D, M235F, A236V
B19: DLX2475 (scFv)
scFv: B17 scFv with N31K, R50Q, S96H, A161Y, Q229A, M235F, A236K, G237L
B20: DLX2466 (scFv)
scFv: B17 scFv with D30G, N31K, W32Y, T91A, A161D, Q229N
B21: DLX2465 (scFv)
scFv: B17 scFv with Q229N, A236D, G237L
B22: DLX2480 (scFv)
scFv: B17 scFv with V95I, S96N, S160D, M235F, A236V, G237L
B23: DLX2467 (scFv)
scFv: B17 scFv with D30H, T53N, V95S, S160R, Q229M, M235F, A236V, G237L
B24: DLX2468 (scFv)
scFv: B17 scFv with D30G, W32Y, T91A, V95T, A161S, Q229N, A236V, G237L

target: T1, recombinant human IL-1 beta (human, UniProt P01584 117-269); test: ELISA, cleared E. coli lysate on coated rhIL-1 beta
T1 construct: Bought protein; also called rhIL-1 beta; rhIL1-beta
Method: The resulting scFv mutants are expressed in 96-well format in 1 ml cultures in E. coli BL21 (DE3) (Novagen, USA, cat. no. 69450-3). […] Cells were lysed in lysis buffer (1 mM EDTA, 0.1 mg/ml lysozyme, PBS pH 7.2) in a 96-well format by freezing and subsequent thawing. Derived crude extracts were cleared by centrifugation. Supernatants were added to wells of a microtiterplate coated with 50 ng/ml of rhIL-1 beta (Peprotech) per well. After washing, bound scFvs are detected by ProteinL-HRP and binding to rhIL-1 beta quantified by BM Blue POD Substrate (Roche Applied Science).

binding result	Binder
binds	B1
binds	B2
binds	B3
binds	B4
binds	B5
binds	B6
binds	B7
binds	B8
binds	B9
binds	B10
binds	B11
binds	B12
binds	B13
binds	B14
binds	B15
binds	B16

target: T1, recombinant human IL-1 beta; test: cell-based or functional assay

IC50 of IL-1 beta-induced IL-6 release from human dermal fibroblasts [nM]	Binder
0.004	B17
0.1	B18
0.2	B19
0.3	B20
0.004	B21
0.005	B22
0.025	B23
0.015	B24
